For assay [1], the target named is 2-aminoethanethiol dioxygenase (ADO), full-length human, N-terminally His-tagged and biotinylated (pQE80L-Navi-ADO) (human) (UniProt Q96SZ5). Kind of assay: SPR; biotinylated ADO or ADO mutant immobilised on a Biotin CAP chip (~2500-3000 RU), substrate peptide injected; Biacore T200, 4 °C; 20 mM HEPES pH 7.5, 500 mM NaCl, 10 mM DTT, 0.1% tween-20; 50 µL/minute; multi-cycle or single-cycle mode not given; each cell is one of three independent measurements.

Assay [2] concerns the target ADO-D206N, N-terminally His-tagged and biotinylated (human) (UniProt Q96SZ5). The description is as above.
The target in another assay is T1, ADO-D206N (Homo sapiens, UniProt Q96SZ5, D206N).
T1 construct: Full-length human ADO (Uniprot ID: Q96SZ5) was cloned; made in house; host or cells: E. coli Rosetta2(DE3)
T1 sequence (Q96SZ5 1-270 D206N): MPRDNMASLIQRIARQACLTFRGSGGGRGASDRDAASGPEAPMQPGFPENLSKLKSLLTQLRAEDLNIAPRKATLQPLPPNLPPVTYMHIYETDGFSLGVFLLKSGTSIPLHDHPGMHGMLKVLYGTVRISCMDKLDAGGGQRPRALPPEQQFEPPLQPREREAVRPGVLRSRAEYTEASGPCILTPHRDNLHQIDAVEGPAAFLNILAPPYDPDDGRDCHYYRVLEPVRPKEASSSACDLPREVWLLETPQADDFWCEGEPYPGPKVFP
In words: SPR binding of substrate peptides (native and oxidised) to ADO variant. The note with it: up to 100 μM. The source says:
Having verified the accuracy of the substrate analogue-bound crystal structures using MD simulations, key active site residues were mutated to assess their impact on binding and activity using SPR and LCMS. They were chosen based on their proximity to the substrate moieties and their conservation across species, including plants, where NCOs are called plant cysteine oxidases (PCOs; Fig. 5)[9],[10]. Two representative substrates, RGS5_2-15 and IL32_2-15 (a synthetic peptide corresponding to the methionine excised N-terminus of IL32, residues 2–15), were tested to compare interactions with different amino acid sequences.
ADO cannot bind oxidised peptide or protein sequences (i.e. those bearing Nt-Cys sulfinic acid/sulfinate)[36]. To explore whether ADO-D206 plays a role in product release through protonation or charge repulsion, the binding of oxidised RGS5_2-15 and IL32_2-15 to ADO-D206N was monitored by SPR (Supplementary Fig. 22). […] Given its position in the active site (and the fact that many ADO-D206 variants bind substrate), this implies that ADO-D206 contributes to ADO activity through an interaction with O2 during turnover.
SPR measurements were made using a Biacore T200 (Cytiva) instrument and data were analysed using the Biacore Insight Evaluation Software. […]

The target of assay [3] is ADO-D206N, biotinylated (pQE80L-Navi-ADO) (human) (UniProt Q96SZ5). In words: SPR; single-cycle kinetics (SCK), 1:1 binding model; biotinylated ADO or variant immobilised on a Biotin CAP chip, peptide injected at 25.6, 64, 160, 400, 1000 nM; 4 °C; 20 mM HEPES pH 7.5, 500 mM NaCl, 10 mM DTT, 0.1% (v/v) tween-20; 50 μL/minute. On the technique in general: In SPR one partner is held on a chip, and binding of the other changes the refractive index at the surface.

Assay [4] addresses 2-aminoethanethiol dioxygenase (ADO), wild type, biotinylated (pQE80L-Navi-ADO) (human). In words: SPR; multi-cycle, equilibrium steady state affinity 1:1 binding model; biotinylated ADO or variant immobilised on a Biotin CAP chip (~2500-3000 RU), peptide injected; 4 °C; 20 mM HEPES pH 7.5, 500 mM NaCl, 10 mM DTT, 0.1% (v/v) tween-20; 50 μL/minute.
Another assay deals with T2, ADO-I109A (human, UniProt Q96SZ5 1-270, I109A, biotin).
T2 construct: 2-aminoethanethiol dioxygenase (ADO), human, UniProt Q96SZ5, full length; Made by site-directed mutagenesis of the SPR construct; source: E. coli Rosetta2(DE3), purified (Ni-NTA, SEC); not shown: biotinylation tag (from the vector pQE80L-Navi), N-terminal, kept
T2 sequence (looked up): T1 sequence (Q96SZ5 1-270 D206N) with I109A, N206D
In words: SPR; biotinylated ADO (wild type or mutant) immobilised on a Biotin CAP chip, substrate peptides injected; 4 °C; 20 mM HEPES pH 7.5, 500 mM NaCl, 10 mM DTT, 0.1% tween-20; multi-cycle or single-cycle mode not given. The note with it: both partners purified.

The target of assay [5] is ADO with a change in F101 (ADO-F101) (human) (UniProt Q96SZ5). Described as above.
The target of assay [6] is ADO with a change in Y212 (ADO-Y212) (human) (UniProt Q96SZ5). Described as above.
In assay [7] the target is 2-aminoethanethiol dioxygenase (ADO), wild type, biotinylated (pQE80L-Navi-ADO) (human). Kind of assay: SPR; single-cycle kinetics (SCK), 1:1 binding model; biotinylated ADO or variant immobilised on a Biotin CAP chip, peptide injected at 25.6, 64, 160, 400, 1000 nM; 4 °C; 20 mM HEPES pH 7.5, 500 mM NaCl, 10 mM DTT, 0.1% (v/v) tween-20; 50 μL/minute.
Assay [8] has as its target T3, 2-aminoethanethiol dioxygenase (ADO), full-length human, N-terminally His-tagged and biotinylated … (human, UniProt Q96SZ5 1-270, biotin (biotinylated during expression, 0.2 mM biotin added)).
T3 construct: 2-aminoethanethiol dioxygenase (ADO), human, UniProt Q96SZ5, full length; Immobilised through its biotin on a Biotin CAP chip for SPR; also called wild type ADO; Biotinylated-ADO; source: E. coli Rosetta2(DE3), purified (Ni-NTA, SEC); not shown: biotinylation tag (from the vector pQE80L-Navi), N-terminal, kept
T3 sequence (looked up): T1 sequence (Q96SZ5 1-270 D206N) with N206D
In words: SPR; single-cycle kinetics (1:1 binding model); biotinylated ADO immobilised on a Biotin CAP chip (~2500-3000 RU), cyclic peptide injected; Biacore T200, 4 °C; 20 mM HEPES pH 7.5, 500 mM NaCl, 10 mM DTT, 0.1% tween-20; 50 µL/minute; each cell is one of three independent measurements. The settings on record: both partners purified.

Where a chain is given by its changes, count along the chain named. Names and notes keep the numbering of the source. Values joined by “and” are separate entries in the source; they are usually repeats but may differ in a detail not shown here. Identical values can stand only once. Bridges are numbered along the chain shown (N, C = ends). Where no end group is shown, it is not given here. [ ]: non-standard residue; d: D form.

“IL32(2-15), synthetic peptide corresponding to the methionine excised N-terminus of IL32, residues 2-15 (from UniProt P24001 2-15)”: the Kd in [1] is 372 nM and 449 nM and 573 nM; in [2] it was 68.4 nM and 73.3 nM and 67.5 nM.
On to “oxidised RGS5_2-15: RGS5_2-15 bearing Nt-Cys sulfinic acid/sulfinate, obtained through pre-incubation with ADO ([Cys sulfinic acid]KGLAALPHSCLER)”, for which the “binding of oxidised peptide to ADO-D206N (in words)” value with ADO-D206N is reported as “No association was observed”.
Turning to “RGS5(2-15), synthetic peptide corresponding to the methionine excised N-terminus of RGS5, residues 2 to 15 (from UniProt O15539 2-15)”, the dissociation constant Kd in assay [1] is 609 nM and 637 nM and 675 nM; in [2], 149 nM and 155 nM and 152 nM.
For the molecule “oxidised IL32_2-15: IL32_2-15 bearing Nt-Cys sulfinic acid/sulfinate, obtained through pre-incubation with ADO ([Cys sulfinic acid]FPKVLSDDMKKLK)”, in the assay with ADO-D206N, the “binding of oxidised peptide to ADO-D206N (in words)” value is reported as “No association was observed”.
Turning to “IL32_(2-15), synthetic peptide corresponding to the methionine excised N-terminus of IL32, residues 2-15 (from UniProt P24001 2-15)”, the dissociation constant Kd stood at 70 nM in assay [3] and 460 nM in assay [4].
With “RGS5_(2-15), synthetic peptide corresponding to the methionine excised N-terminus of RGS5, residues 2 to 15 (from UniProt O15539 2-15)”, the Kd in [3] amounted to 150 nM; in assay [4], 640 nM.

B1: IL32_(2-15), synthetic peptide corresponding to the methionine excised N-terminus of IL32, residues 2-15 (peptide, UniProt P24001 2-15, looked up)
peptide: CFPKVLSDDMKKLK
notes: interleukin 32 (IL32), residues 2-15 (methionine excised N-terminus); peptide synthesis is in the supplementary methods; source: synthetic peptide
For the molecule B1, the “fold increase in KD relative to wild type ADO” value with ADO-I109A is 35 fold.

B2: RGS5_(2-15), synthetic peptide corresponding to the methionine excised N-terminus of RGS5, residues 2 to 15 (peptide, UniProt O15539 2-15, looked up)
peptide: CKGLAALPHSCLER
notes: RGS5, human, residues 2 to 15 (methionine excised N-terminus); peptide synthesis is in the supplementary methods; source: synthetic peptide
On to B2, for which the “fold increase in KD relative to wild type ADO” value with ADO-I109A was found to be 2 fold.
CFPKVLSDDMKKLK: the fold increase in KD relative to wild type ADO was < 80 fold in assay [5] and < 113 fold in assay [6].
For CKGLAALPHSCLER the same measures were < 80 fold and < 113 fold.

B3: CP6-L8K-Cys (peptide)
peptide: {CH2CO}-YIVKTFWK(Cys)GSHRQC
modifications: thioether N-14
notes: the substitution L8K is to be applied, Cys on the sidechain amine of K8; Branched peptide: the Cys is not in the main chain; source: synthetic peptide
In the case of B3, the equilibrium dissociation constant (Kd) was 13 nM in assay [7]; 11 nM and 13.1 nM and 13.7 nM in assay [8].

B4: CP6-L8K-Ser (peptide)
peptide: {CH2CO}-YIVKTFWK(Ser)GSHRQC
modifications: thioether N-14
notes: the substitution L8K is to be applied, Ser on the sidechain amine of K8; Branched peptide: the Ser is not in the main chain; also called CP-L8K-Ser; source: synthetic peptide
Consider B4, for which the Kd in assay [7] was 21 nM; in assay [8] it was 17.2 nM and 20.6 nM and 26.8 nM.

One may read the Kd as the equilibrium constant for the complex coming apart. Higher therefore signals weaker binding.

(Values after PMC12098869, “An mRNA-display derived cyclic peptide scaffold reveals the substrate binding interactions of an N-terminal cysteine oxidase” (Nature Communications, 2025).)
